Assay results from the supplement of paper PMC10065799, “High-throughput profiling of sequence recognition by tyrosine kinases and SH2 domains using bacterial peptide display” (eLife, 2023).

Legend:
Grb2 SH2 = Grb2 SH2 (UniProt P62993); assay: SH2 binding enrichment of the phosphorylated peptide, bacterial display (enrichment ratio); higher = better substrate or ligand; peptides without Tyr show the background
c-Src SH2 = assay: as above
SHP2-C SH2 = assay: as above
EPHB1 = EPHB1 (UniProt P54762); assay: phosphorylation enrichment, bacterial display (enrichment ratio); higher = better substrate or ligand; peptides without Tyr show the background
Sequence of EPHB1 (P54762 whole entry, looked up): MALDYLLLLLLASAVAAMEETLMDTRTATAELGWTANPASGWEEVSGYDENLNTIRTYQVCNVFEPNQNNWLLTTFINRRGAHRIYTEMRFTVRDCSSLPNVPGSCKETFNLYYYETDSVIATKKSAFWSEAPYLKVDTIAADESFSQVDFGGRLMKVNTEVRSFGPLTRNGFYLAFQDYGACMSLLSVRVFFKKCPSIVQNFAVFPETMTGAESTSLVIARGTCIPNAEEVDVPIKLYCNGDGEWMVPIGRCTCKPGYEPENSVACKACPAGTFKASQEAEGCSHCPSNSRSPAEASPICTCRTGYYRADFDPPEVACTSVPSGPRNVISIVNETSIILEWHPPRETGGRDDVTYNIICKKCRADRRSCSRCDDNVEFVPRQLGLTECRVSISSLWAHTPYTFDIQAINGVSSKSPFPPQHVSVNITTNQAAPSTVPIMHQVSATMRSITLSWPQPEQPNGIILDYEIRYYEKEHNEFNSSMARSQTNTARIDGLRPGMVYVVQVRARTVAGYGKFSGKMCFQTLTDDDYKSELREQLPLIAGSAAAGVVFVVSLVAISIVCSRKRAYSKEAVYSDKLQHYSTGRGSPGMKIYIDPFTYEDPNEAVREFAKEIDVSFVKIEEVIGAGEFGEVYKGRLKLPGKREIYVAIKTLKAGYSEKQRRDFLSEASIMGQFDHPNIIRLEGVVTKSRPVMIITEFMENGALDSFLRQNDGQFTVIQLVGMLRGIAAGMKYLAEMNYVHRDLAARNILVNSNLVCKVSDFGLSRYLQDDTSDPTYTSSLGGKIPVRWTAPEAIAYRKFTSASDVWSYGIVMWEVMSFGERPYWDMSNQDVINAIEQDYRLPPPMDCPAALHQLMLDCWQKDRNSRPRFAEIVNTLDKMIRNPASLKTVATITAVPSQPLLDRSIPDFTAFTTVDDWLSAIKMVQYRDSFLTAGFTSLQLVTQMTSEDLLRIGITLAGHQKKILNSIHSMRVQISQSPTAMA

Hck = Hck (UniProt P08631); assay: as above
Jak2 = Jak2 (UniProt O60674); assay: as above
FGFR3 = FGFR3 (UniProt P22607); assay: as above
Sequence of FGFR3 (P22607 whole entry, looked up): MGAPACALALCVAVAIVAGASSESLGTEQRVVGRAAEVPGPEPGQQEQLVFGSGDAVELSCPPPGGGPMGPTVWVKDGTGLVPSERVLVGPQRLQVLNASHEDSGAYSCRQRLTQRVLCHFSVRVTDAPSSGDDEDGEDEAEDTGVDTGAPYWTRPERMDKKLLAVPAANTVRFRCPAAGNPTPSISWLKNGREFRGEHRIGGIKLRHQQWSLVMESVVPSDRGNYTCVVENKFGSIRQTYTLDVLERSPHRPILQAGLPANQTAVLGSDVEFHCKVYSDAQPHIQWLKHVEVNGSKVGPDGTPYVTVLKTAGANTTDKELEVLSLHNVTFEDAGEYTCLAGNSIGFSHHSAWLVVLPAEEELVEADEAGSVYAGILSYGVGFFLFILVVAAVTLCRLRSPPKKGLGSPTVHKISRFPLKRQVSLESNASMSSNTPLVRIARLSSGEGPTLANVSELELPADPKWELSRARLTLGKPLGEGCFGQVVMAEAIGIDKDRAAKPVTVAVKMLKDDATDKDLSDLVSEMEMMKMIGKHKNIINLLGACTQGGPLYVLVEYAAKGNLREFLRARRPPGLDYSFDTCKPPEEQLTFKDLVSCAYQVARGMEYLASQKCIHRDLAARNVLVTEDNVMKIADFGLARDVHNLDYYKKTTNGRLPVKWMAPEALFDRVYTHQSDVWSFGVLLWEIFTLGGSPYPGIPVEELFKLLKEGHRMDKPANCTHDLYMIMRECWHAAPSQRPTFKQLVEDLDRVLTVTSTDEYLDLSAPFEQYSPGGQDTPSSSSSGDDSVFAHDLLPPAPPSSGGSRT

Fer (mouse) = assay: as above
EPHB2 = EPHB2 (UniProt P29323); assay: as above
Sequence of EPHB2 (P29323 whole entry, looked up): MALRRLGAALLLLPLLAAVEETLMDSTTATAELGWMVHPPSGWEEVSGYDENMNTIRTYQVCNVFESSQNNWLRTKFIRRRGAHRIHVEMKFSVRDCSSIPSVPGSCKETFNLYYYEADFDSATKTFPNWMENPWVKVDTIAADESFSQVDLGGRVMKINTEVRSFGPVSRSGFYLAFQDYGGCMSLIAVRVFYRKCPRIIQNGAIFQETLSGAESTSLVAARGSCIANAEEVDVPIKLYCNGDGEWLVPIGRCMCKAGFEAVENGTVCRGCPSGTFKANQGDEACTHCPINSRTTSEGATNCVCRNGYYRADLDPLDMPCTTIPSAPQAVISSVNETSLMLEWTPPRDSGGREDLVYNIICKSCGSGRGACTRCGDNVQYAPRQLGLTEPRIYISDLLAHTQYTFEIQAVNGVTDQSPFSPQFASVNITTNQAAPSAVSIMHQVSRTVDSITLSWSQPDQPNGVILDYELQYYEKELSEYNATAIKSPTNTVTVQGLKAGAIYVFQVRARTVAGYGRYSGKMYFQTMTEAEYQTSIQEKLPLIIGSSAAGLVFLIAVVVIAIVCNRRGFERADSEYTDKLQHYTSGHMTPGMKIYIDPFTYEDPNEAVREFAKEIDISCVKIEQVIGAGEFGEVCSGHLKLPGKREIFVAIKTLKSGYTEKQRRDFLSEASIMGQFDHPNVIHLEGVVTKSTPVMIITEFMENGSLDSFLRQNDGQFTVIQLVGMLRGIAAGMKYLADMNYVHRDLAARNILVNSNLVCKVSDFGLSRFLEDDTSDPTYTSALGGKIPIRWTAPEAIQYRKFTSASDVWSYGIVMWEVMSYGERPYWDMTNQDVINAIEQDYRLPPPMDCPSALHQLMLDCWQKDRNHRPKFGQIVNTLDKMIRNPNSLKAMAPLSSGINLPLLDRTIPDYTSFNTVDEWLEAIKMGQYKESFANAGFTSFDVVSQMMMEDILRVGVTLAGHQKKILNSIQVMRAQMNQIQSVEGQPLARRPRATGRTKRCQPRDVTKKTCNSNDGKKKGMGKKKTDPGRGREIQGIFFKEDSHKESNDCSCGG

Fyn = Fyn (UniProt P06241); assay: as above
Fes = Fes (UniProt P07332); assay: as above
c-Abl (mouse) = assay: as above
MERTK = MERTK (UniProt Q12866); assay: as above
Sequence of MERTK (Q12866 whole entry, looked up): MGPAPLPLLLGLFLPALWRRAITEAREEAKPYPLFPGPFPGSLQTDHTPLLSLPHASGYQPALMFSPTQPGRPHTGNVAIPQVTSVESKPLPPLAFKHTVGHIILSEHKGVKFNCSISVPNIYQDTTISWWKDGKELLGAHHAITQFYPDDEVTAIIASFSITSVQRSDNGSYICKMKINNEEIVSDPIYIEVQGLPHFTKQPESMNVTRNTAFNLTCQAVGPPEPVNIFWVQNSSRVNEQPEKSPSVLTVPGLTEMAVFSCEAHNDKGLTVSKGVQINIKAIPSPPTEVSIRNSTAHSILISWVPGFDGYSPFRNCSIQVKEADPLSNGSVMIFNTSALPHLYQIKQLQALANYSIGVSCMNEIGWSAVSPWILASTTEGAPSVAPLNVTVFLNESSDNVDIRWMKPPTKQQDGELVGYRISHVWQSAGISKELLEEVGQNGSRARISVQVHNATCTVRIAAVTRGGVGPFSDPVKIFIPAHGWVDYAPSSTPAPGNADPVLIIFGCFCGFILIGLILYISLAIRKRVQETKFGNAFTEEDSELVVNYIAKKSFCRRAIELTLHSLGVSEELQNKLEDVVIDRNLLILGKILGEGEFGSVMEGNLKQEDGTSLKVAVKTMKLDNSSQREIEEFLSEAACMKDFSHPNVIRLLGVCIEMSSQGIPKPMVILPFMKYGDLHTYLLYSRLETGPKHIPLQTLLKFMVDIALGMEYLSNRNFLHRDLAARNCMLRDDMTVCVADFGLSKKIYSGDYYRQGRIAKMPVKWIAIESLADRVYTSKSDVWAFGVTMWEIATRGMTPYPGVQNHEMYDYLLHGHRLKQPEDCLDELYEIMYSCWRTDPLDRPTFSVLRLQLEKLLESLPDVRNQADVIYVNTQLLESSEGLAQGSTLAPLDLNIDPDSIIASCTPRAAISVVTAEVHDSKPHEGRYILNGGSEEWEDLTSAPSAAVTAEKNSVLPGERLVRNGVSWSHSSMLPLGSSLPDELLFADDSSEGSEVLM

c-Src = assay: as above
FGFR1 = FGFR1 (UniProt P11362); assay: as above
Sequence of FGFR1 (P11362 whole entry, looked up): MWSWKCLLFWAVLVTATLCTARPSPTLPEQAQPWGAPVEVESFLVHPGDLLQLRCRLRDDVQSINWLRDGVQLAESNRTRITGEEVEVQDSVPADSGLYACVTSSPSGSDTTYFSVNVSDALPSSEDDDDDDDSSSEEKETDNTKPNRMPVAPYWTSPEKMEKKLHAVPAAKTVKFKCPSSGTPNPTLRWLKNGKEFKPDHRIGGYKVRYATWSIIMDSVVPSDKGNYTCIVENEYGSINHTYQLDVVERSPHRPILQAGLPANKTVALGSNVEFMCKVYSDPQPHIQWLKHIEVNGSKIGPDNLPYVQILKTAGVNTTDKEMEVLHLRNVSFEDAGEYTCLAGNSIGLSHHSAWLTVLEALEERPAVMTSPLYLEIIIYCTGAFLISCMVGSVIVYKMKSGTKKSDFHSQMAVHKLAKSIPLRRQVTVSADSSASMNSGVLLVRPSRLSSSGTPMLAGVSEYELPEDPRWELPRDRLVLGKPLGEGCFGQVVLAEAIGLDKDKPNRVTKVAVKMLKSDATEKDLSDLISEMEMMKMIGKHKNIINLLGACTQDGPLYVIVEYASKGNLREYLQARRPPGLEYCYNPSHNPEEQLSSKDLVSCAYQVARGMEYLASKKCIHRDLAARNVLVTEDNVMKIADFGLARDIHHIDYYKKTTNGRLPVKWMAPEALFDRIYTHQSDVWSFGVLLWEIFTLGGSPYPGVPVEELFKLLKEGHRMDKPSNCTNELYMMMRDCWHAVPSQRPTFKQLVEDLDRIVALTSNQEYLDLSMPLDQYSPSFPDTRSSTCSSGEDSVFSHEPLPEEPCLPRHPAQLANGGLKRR

AncSZ = assay: as above
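Throughout, for SH2 binding enrichment of the phosphorylated peptide, bacterial display: peptide library displayed on the E. coli surface as eCPX fusions, selected cells deep-sequenced, score is each peptide's frequency after selection divided by its frequency in the input.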
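Throughout, for phosphorylation enrichment, bacterial display: 11-residue human phosphosite peptides and single-mutation variants displayed on the E. coli surface, counted by deep sequencing, each peptide's frequency after selection divided by its frequency in the unselected input library; frequency after pTyr selection over input frequency; kinase dosed for 20-30% of maximal phosphorylation in three min.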

Sequence of Grb2 SH2 (P62993 whole entry, looked up): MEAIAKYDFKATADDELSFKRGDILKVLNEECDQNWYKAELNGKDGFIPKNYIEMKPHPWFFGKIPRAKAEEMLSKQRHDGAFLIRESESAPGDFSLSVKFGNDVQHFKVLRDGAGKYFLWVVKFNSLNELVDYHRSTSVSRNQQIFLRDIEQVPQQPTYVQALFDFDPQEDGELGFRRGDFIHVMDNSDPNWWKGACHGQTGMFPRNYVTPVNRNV

| Sequence | SH2 binding enrichment (Grb2 SH2) | SH2 binding enrichment (c-Src SH2) | SH2 binding enrichment (SHP2-C SH2) | phosphorylation enrichment (EPHB1) | phosphorylation enrichment (Hck) | phosphorylation enrichment (Jak2) | phosphorylation enrichment (FGFR3) | phosphorylation enrichment (Fer (mouse)) | phosphorylation enrichment (EPHB2) | phosphorylation enrichment (Fyn) | phosphorylation enrichment (Fes) | phosphorylation enrichment (c-Abl (mouse)) | phosphorylation enrichment (MERTK) | phosphorylation enrichment (c-Src) | phosphorylation enrichment (FGFR1) | phosphorylation enrichment (AncSZ) |
| --- | --- | --- | --- | --- | --- | --- | --- | --- | --- | --- | --- | --- | --- | --- | --- | --- |
| LFLALYTGLVR [PIGB_Y402_H407R] | 1.53 | 1.01 | 1.02 | 0.628 | 1.59 | 1.18 | 0.747 | 0.539 | 0.573 | 0.82 | 1.24 | 0.896 | 0.759 | 1.66 | 0.452 | 1.31 |
| LGGSPYPGVPV [FGFR1_Y701] | 0.873 | 0.546 | 0.874 | 0.493 | 0.481 | 0.503 | 0.463 | 0.413 | 0.615 | 0.524 | 0.881 | 0.675 | 0.4 | 0.359 | 0.514 | 0.591 |
| LGKGSYAKVKS [TSSK2_Y23] | 0.777 | 1.65 | 1.5 | 0.482 | 0.985 | 1.54 | 0.844 | 0.693 | 0.875 | 1.37 | 1.83 | 1.26 | 1.11 | 1.53 | 0.955 | 0.884 |
| LGKGSYAKVRS [TSSK2_Y23_K27R] | 1.73 | 2.29 | 2.14 | 0.395 | 0.586 | 1.33 | 0.699 | 0.626 | 0.408 | 0.725 | 0.733 | 1.12 | 0.744 | 0.792 | 0.558 | 1.02 |
| LGMSQYFRLFN [CPT2_Y217_D213G] | 1.06 | 0.805 | 3.46 | 0.601 | 0.64 | 3.24 | 0.766 | 0.499 | 0.839 | 0.364 | 1.26 | 0.581 | 0.58 | 0.381 | 0.704 | 0.966 |
| LGNIVYSSLCG [BCOR_Y90_P85L] | 0.778 | 0.551 | 1.44 | 1.47 | 6.67 | 2.02 | 1.54 | 1.74 | 1.39 | 4.98 | 2.15 | 2.48 | 2.66 | 5.82 | 1.05 | 2.1 |
| LGSNGYKKLLK [SEPSECS_Y334] | 0.723 | 0.396 | 0.576 | 0.42 | 0.635 | 0.59 | 0.636 | 0.351 | 0.437 | 0.879 | 0.841 | 0.543 | 0.773 | 0.755 | 0.338 | 0.697 |
| LHQSTYQCYDV [SLC7A14_Y693_R695C] | 0.756 | 0.536 | 0.513 | 2.12 | 2.78 | 1.31 | 1.2 | 2.84 | 2.85 | 3.95 | 1.53 | 1.35 | 1.06 | 5.21 | 1.12 | 1.82 |
| LHRHAYPEQRQ [DPPA2_Y127] | 1.14 | 1.19 | 1.11 | 0.434 | 0.704 | 0.53 | 0.577 | 0.532 | 0.594 | 0.502 | 0.967 | 0.789 | 0.487 | 0.449 | 0.505 | 0.619 |
| LIQRNYKLAAQ [ALPK2_Y1975] | 0.961 | 0.399 | 0.649 | 1.13 | 0.833 | 0.44 | 0.962 | 0.576 | 0.604 | 0.571 | 1.21 | 0.773 | 0.72 | 0.49 | 0.937 | 1.19 |
| LIYTNYEVGKD [GSTP1_Y112_A114V] | 1.12 | 0.801 | 1.09 | 13.4 | 8.89 | 1.33 | 5.54 | 17.7 | 16.8 | 11.9 | 1.96 | 14.1 | 11.3 | 8.72 | 7.05 | 2.37 |
| LKRCQYVTEKV [ALDOA_Y204] | 0.742 | 0.53 | 0.654 | 1.9 | 0.689 | 2.26 | 0.924 | 0.794 | 0.89 | 0.823 | 1.75 | 1.24 | 0.672 | 0.796 | 1.11 | 1.59 |
| LLGFLYFFVCS [SLC34A2_Y109] | 1.06 | 0.776 | 1.22 | 1.17 | 0.948 | 2.88 | 1.81 | 1.43 | 1.76 | 1.26 | 3.17 | 2.89 | 1.04 | 2.1 | 1.03 | 1.66 |
| LLILEYAKFGS [RET_Y806_V804L_YF] | 2.19 | 1.21 | 1.76 | 1.49 | 0.901 | 1.15 | 1.38 | 0.699 | 0.991 | 1.01 | 1.52 | 0.635 | 0.585 | 0.976 | 0.85 | 1.34 |
| LLKAKYELLNA [POLR3A_Y714] | 0.964 | 1.95 | 0.444 | 0.454 | 0.496 | 0.707 | 0.493 | 0.423 | 0.491 | 0.466 | 0.614 | 0.544 | 0.418 | 0.405 | 0.423 | 0.582 |
| LLLLFCVVRYC [MPZ_Y177_Y177C] | 2.53 | 1.41 | 1.58 | 2.47 | 2.16 | 3.14 | 2.14 | 1.14 | 2.48 | 1.78 | 2.07 | 4.58 | 2.94 | 2.84 | 3.08 | 3.01 |
| LLNPSYNLPLD [TOM1L1_Y109_R108S] | 0.685 | 0.833 | 0.618 | 1.26 | 1.07 | 0.908 | 1.14 | 0.808 | 0.711 | 0.979 | 1.45 | 0.855 | 0.854 | 0.523 | 0.595 | 1.22 |
